Residue numbers refer to the chain shown, from its start.
B1: Antibody N (AbN) (antibody, V domains shown)
VH: EVQLQESGPGLVKPSQTLSLTCTVSGYSIGRDFAWNWIRQPPGKGLEWMGYISYSGNTRYQPSLKSRITISRDTSKNQFFLKLNSVTAADTATYYCVTASRGFPYWGQGTLVTVSS
VL: DIQMTQSPSSMSVSVGDRVTITCHSSQDITYNVGWLQQKPGKSFKGLIYHGSNLDHGVPSRFSGSGSGTDYTLTISSLQPEDFATYYCVQYDDFPWTFGGGTKLEIK
notes: Full length IgG1
B2: Antibody B (AbB) (antibody, V domains shown)
VH: B1 VH with G30S, R31N, S55K, Y105W
VL: B1 VL with T30N, Y31S, V33I, S52T, H56D, D92A, D93Q
notes: Converted from scFv into a full length IgG1 antibody
B3: Antibody C (AbC) (antibody, V domains shown)
VH: B1 VH with G30S, R31S, S100G
VL: B1 VL with T30N, Y31S, V33I, S52T, H56D, D92E, D93Q
notes: Full length IgG1
B4: Antibody D (AbD) (antibody, V domains shown)
VH: B1 VH with G30S, R31S, S100G
VL: B1 VL with T30N, Y31S, V33L, S52A, D55H, H56D, D92A, D93E
notes: Full length IgG1
B5: Antibody E (AbE) (antibody, V domains shown)
VH: B1 VH with G30S, R31S, S100G
VL: B1 VL with T30N, Y31S, V33L, D93Q
notes: Full length IgG1
B6: Antibody F (AbF) (antibody, V domains shown)
VH: B1 VH with G30S
VL: B1 VL with T30N, Y31S, V33I, S52T, H56D, D92A, D93Q
notes: Full length IgG1
B7: Antibody G (AbG) (antibody, V domains shown)
VH: B1 VH with G30S, R31N, P41L, S55K, F103L
VL: B1 VL with V33I, S52A, H56D, D93E
notes: Full length IgG1
B8: Antibody H (AbH) (antibody, V domains shown)
VH: B1 VH with R31K, S55N, F103L
VL: B1 VL with V33I, S52A, H56D, D93E
notes: Full length IgG1
B9: Antibody J (AbJ) (antibody, V domains shown)
VH: B1 VH with R31K, F103L
VL: B1 VL with V33I, S52A, H56D, D93E
notes: Full length IgG1
B10: Antibody K (AbK) (antibody, V domains shown)
VH: B1 VH with G30S, S55N, Y105W
VL: B1 VL
notes: Full length IgG1
B11: Antibody L (AbL) (antibody, V domains shown)
VH: B1 VH with R31K, S55N, F103L
VL: B1 VL
notes: Full length IgG1
B12: Antibody M (AbM) (antibody, V domains shown)
VH: B1 VH with S55N
VL: B1 VL
notes: Full length IgG1
B13: Antibody O (AbO) (antibody, V domains shown)
VH: B1 VH with R31K, S55N
VL: B1 VL
notes: Full length IgG1; also called Antibody 0
B14: Antibody P (AbP) (antibody, V domains shown)
VH: B1 VH with G30S, R31H, R101W, F103L, Y105W
VL: B1 VL with T30N, Y31M, S52A, N53I, H56D, D92A, D93E
notes: Full length IgG1
B15: Antibody A (AbA) (antibody, human IgG1, kappa, V domains shown)
VH: B1 VH with G30S, S55N
VL: DIQMTQSPSSMSVSVGDRVTITCHSSQDINSNIGWLQQKPGKSFKGLIYHGTNLDDGVPSRFSGSGSGTDYTLTISSLQPEDFATYYCVQYAQFPWTFGGGTKLEIKR
notes: IgG1

Assays:
[1] = molecular target: T1, truncated wild type EGFR 1-525 (EGFR1 (1-525)-SRGPF-Myc-NMHTG-6His) (human, UniProt P00533 25-525); test: SPR (Biacore), antibody captured via anti-human Fc, antigen injected
T1 construct: the signal peptide is left out; not shown: Myc tag
Experimental: (§1) Biacore analysis was performed using a Biacore T100 with a CM5 sensory chip, and test antibodies were captured via anti-human Fc antibodies that were amino coupled to the chip using a standard amine coupling kit according to manufacturer's instructions (GE healthcare). Briefly, a CM5 chip surface was activated with EDC/NHS. Goat anti-human Fc specific polyclonal antibody (Thermo Fisher Scientific Inc., Rockford, Ill.) was diluted to 25 μg/mL in 10 mM sodium acetate (pH 4.5) and injected over the activated surface to achieve immobilization. Unreacted moieties on the biosensor surface were blocked with ethanolamine. The Biacore T100 is a surface plasmon resonance based biosensor for detecting, characterizing and quantifying bimolecular interactions, including the interactions between an antibody and its antigen. Antigen was injected at 80 μL/minute for 3 minutes and dissociation was followed for 15 minutes.

[2] = molecular target: T2, EGFRvIII extracellular domain (EGFR (1-29)-G-(298-645)-LESRGPF-Myc-NMHTG-6His) (human, UniProt P00533 298-641); test: as above
T2 construct: also called recombinant EGFRvIII; not shown: Myc tag
Experimental: as §1

[3] = molecular target: T1, truncated wild type EGFR 1-525 (EGFR1 …); test: SPR (Biacore T100), antibody captured on anti-human Fc, antigen in solution
Experimental: as §1

[4] = molecular target: T1, truncated wild type EGFR 1-525 (EGFR1 …); test: SPR (Biacore T100)
[5] = molecular target: T2, EGFRvIII extracellular domain (EGFR …); test: SPR (Biacore T100)
[6] = molecular target: T3, EGFRvIII on U87MG cells (human, UniProt P00533 298-1210); test: competition FACS on U87MG de2-7 cells expressing EGFRvIII; competitor Ab1-FITC at 100 nM
T3 construct: also called de2-7 EGFR

[7] = molecular target: T4, wild type human EGFR on cells (A431, NHEK, SCC-15, H292) (human, UniProt P00533 25-1210); test: FACS binding to normal human epidermal keratinocytes (NHEK), AlexaFluor 488 secondary antibody
T4 construct: Endogenous receptor of human cell lines and keratinocytes said to express wild type EGFR; also called wild type EGFR; wtEGFR
Experimental: NHEK cells express wild type EGFR.
Cells were harvested when approximately 80% confluent using trypsin, neutralized and washed once in PBS/1% FBS (FACS buffer) then resuspended at 2.5×10⁶ cells/mL in FACS buffer. 100 μL of cells/well were added to a round bottom 96-well plate. 10 μL of a 10x concentration of Ab (final concentrations are listed in the Figures) was added and plate was incubated at 4° C. for one hour. Wells were washed twice with FACS buffer then resuspended in 50 μL of secondary Ab (AlexaFluor 488) diluted in FACS buffer. The plate was incubated at 4° C. for one hour then washed twice with FACS buffer. Cells were then resuspended in 100 μL of PBS/1% formaldehyde and analyzed on a Becton Dickinson LSRII flow cytometer. Data was analyzed using WinList flow cytometry analysis software.

[8] = molecular target: T1, truncated wild type EGFR 1-525 (EGFR1 …); test: SPR (summary of FIG. 6)
[9] = molecular target: T4, wild type human EGFR on cells (A431, …); test: cell-based or functional assay
[10] = molecular target: T2, EGFRvIII extracellular domain (EGFR …); test: SPR (Biacore T100), antibody captured on anti-human Fc, antigen in solution
Experimental: as §1

Row | Binder | KD ratio (Ab1/variant Ab) [1] | Kd [1] [nM] | koff [1] [s⁻¹] | kon [1] [M⁻¹ s⁻¹] | KD ratio (Ab1/variant Ab) [2] | Kd [2] [nM] | koff [2] [s⁻¹] | kon [2] [M⁻¹ s⁻¹] | IC50 (read off the curve) [6] [nM] | EC50 (read off the curve) [7] [nM] | other results
1 | B1 | 642 | 3.5 | 1.71e-05 | 4840 | 12.5 | 0.75 | 0.000103 | 137000 |  |  | 
2 | B2 | 10.5 | 220 | 0.00119 | 5460 | 4.2 | 2.2 | 0.000173 | 78300 |  |  | 
3 | B3 |  |  |  |  | 2.6 | 3.6 | 0.00079 | 220000 |  |  | 
4 | B4 | 4.1 | 550 | 0.00322 | 5820 | 1.5 | 6.1 | 0.000866 | 141000 |  |  | 
5 | B5 | 3.8 |  | 0.00367 | 6170 | 1.2 | 8.2 | 0.00158 | 193000 |  |  | Kd [3]: 590 nM; fold increase in affinity over the KD of Ab1 [3]: ~4 fold
6 | B6 | 5.4 | 420 | 0.000831 | 1980 | 2.4 | 3.9 | 0.000324 | 83600 |  |  | 
7 | B7 |  | 8.6 | 5.88e-05 | 6800 | 47.2 | 0.2 | 7.44e-05 | 374000 | ~20 | ~40 | fold increase in affinity relative to Ab1 [4]: 263 fold; fold increase in binding relative to Ab1 [5]: > 47 fold
8 | B8 | 441 | 5.2 | 4.07e-05 | 7900 | 63.1 | 0.15 | 4.89e-05 | 327000 |  |  | 
9 | B9 | 60.5 | 38 | 8.27e-05 | 2200 | 31.8 | 0.3 | 9.4e-05 | 318000 |  |  | 
10 | B10 | 1370 |  | 7.92e-06 | 4780 | 15.8 | 0.6 | 7.75e-05 | 130000 | ~30 | ~40 | Kd [3]: 1.7 nM; fold increase over the KD of Ab1 [3]: > 1300 fold
11 | B11 | 722 | 3.1 | 1.78e-05 | 5650 | 27.1 | 0.35 | 6.95e-05 | 200000 |  |  | 
12 | B12 | 387 | 5.9 | 2.26e-05 | 3840 | 14.9 | 0.63 | 0.000118 | 187000 | ~30 | ~40 | 
13 | B13 | 582 | 3.9 | 2.05e-05 | 5250 | 35.2 | 0.27 | 5.22e-05 | 196000 |  |  | fold increase in affinity relative to Ab1 [5]: 63 fold
14 | B14 | 106 | 21 | 7.67e-05 | 3580 | 8.2 | 1.2 | 0.000135 | 117000 | ~30 | ~30 | koff [8]: < 0.0001 s⁻¹; IC50 of inhibition of EGFR signaling in A431 cells (phospho-EGFR ELISA) [9]: > 40 nM
15 | B15 | 10.1 |  | 0.000731 | 3260 | 4.1 |  | 0.000173 | 76100 | ~30 | ~50 | Kd [3]: 220 nM; fold improvement in KD over Ab1 [3]: 10 fold; Kd [10]: 2.3 nM; fold increase in affinity versus Ab1 [10]: 4 fold

Source: patent publication US20150337042A1 (AbbVie / Abbott, published 2015)
